Assays:
CAD = biological target: T1, CAD (Homo sapiens, UniProt Q13586); test: Co-immunoprecipitation of Orai1 fragments with CAD in HEK 293T cells; assay type: binding; conditions: YFP-tagged Orai1 fragment with Flag-myc-CAD in HEK 293T cells
T1 construct: For STIM1 342-448 (CAD); expressed in transfected cells; host or cells: HEK 293T
Procedure: Immunoprecipitation and Immunoblot Analysis. Transfected HEK 293T cells (12-24 h) were washed with PBS and lysed in 50 mM Tris-HCl pH 7.5, 150 mM NaCl, 1% Triton X-100, and protease inhibitors. Lysates were spun at 12,000 rpm for 10 min, and the supernatant was incubated with anti-Flag M2 agarose beads (Sigma), or anti-myc or -HA antibody followed by IgG agarose beads (Pierce). Lysates and immunoprecipitates were subjected to SDS-PAGE, probed with HRP-conjugated secondary antibody and detected by enhanced chemiluminescence (Pierce).
STIM1-CAD BINDS TO THE N- AND C-TERMINI OF ORAI1. To identify regions of Orai1 important for activation by CAD, we characterized the binding of CAD to Orai1 using two approaches. First we expressed fusions of NubG with the N-terminus, the II-III cytoplasmic loop and the C-terminus of Orai1 in yeast together with different CAD-Cub-LV constructs. […] Based on the level of b-gal activity, CAD appears to interact with the Orai1 C-terminus with a higher affinity than with the N-terminus. We next expressed fusions of YFP with the N-terminus, the II-III loop and the C-terminus of Orai1 in HEK 293T cells together with Flag-myc-CAD. […]

endogenous CRAC channels = test: NFAT-luciferase assay in HEK 293T (NFAT-Luc) cells; assay type: cell-based; conditions: following treatment with TG+PMA
Procedure: NFAT-luciferase Assays. HEK 293T cells were co-transfected with the indicated constructs and an NFAT reporter gene (firefly luciferase gene C-terminal to 4×-NFAT site from the IL-2 gene). Cotransfection with the Renilla luciferase (pRLTK) gene driven by the TK promoter was used to control for cell number and transfection efficiency. After 12-18 h, cells were treated with a control DMSO solution (mock), PMA (1 μM), or PMA plus TG (1 μM) for 8 h. Assays were performed using the Dual Luciferase Reporter assay system (Promega). For each condition, luciferase activity was measured with 4 samples taken from duplicate wells using a 96-well automated luminometer (Turner Biosystems). Results are represented as the ratio of firefly to Renilla luciferase activity.
Identifying a Minimal Cytosolic Region of STIM1 that Opens the CRAC Channel. To identify the CRAC-activating domain of STIM1, we first tested a series of soluble cytosolic STIM1 fragments for their ability to activate an NFAT-dependent luciferase reporter gene (NFAT-luc). A series of constructs were generated by progressive truncation of the full-length cytosolic region of STIM1 (FIG. 2A; STIM1234-685; CT-STIM1) and were transiently expressed in a HEK 293T cell line containing NFAT-luc. […]

Orai1 [1] = biological target: T2, Orai1 (Homo sapiens, UniProt Q96D31); test: Puncta formation of STIM1 variants by confocal microscopy in HEK 293 cells; assay type: cell-based; conditions: coexpressed with eGFP-Orai1, TG
T2 construct: expressed in transfected cells; host or cells: HEK 293
Procedure: Confocal Microscopy. 6 h after transfection, HEK 293 cells were plated onto sterilized coverslips coated with poly-D-lysine and maintained in complete DMEM for an additional 12-18 h before imaging in Ringer's solution containing (in mM): 155 NaCl, 4.5 KCl, 2 CaCl2, 1 MgCl2, 10 D-glucose, and 5 Na-Hepes, pH 7.4. To deplete stores, cells were treated with 1 μM TG in Ca2+-free Ringer's (prepared by substituting 2 mM MgCl2 and 1 mM EGTA for CaCl2) for 10 min. eGFP and mCherry were excited simultaneously at 488 and 594 nm, respectively, on a Leica SP2 AOBS inverted confocal microscope equipped with a PL APO 100×/NA 1.4 oil immersion objective. Fluorescence emissions were collected at 615-840 nm (mCherry) and 510-570 nm (eGFP). All experiments were performed at 22-25° C.
Quantitation of STIM1 and Orai1 Recruitment into Puncta. Colocalization of eGFP-Orai1 and mCh-STIM1 variants was analyzed from background-corrected confocal image pairs acquired before and after store depletion. Puncta have two defining characteristics: (1) because they are sites of accumulation, STIM1 and Orai1 fluorescence intensities in puncta are greater than the respective mean intensities measured across the entire cell, and (2) because STIM1 and Orai1 co-localize in puncta, their fluorescence covariance is high. […]

Orai1 [2] = biological target: T2, Orai1; test: Store-operated Ca2+ entry by STIM1 variants, single cell Ca2+ imaging; assay type: cell-based; conditions: coexpressed with eGFP-Orai1, TG
Procedure: For FIG. 7, cells were loaded as above with 2 μM fura-2/AM for 25 min. Ratiometric Ca2+ imaging was performed with 350 and 380 nm excitation in 2 mM Ca2+ Ringer's solution on an Axiovert 35 inverted microscope using a VideoProbe imaging system as described (Bautista et al., 2002). mCherry-positive cells were identified using a 540±12 nm excitation and a 580LP emission filter (Chroma).
The Role of CAD in Orai1 Binding and Activation by STIM1. A key question is whether CAD is responsible for the clustering and activation of CRAC channels by full-length STIM1 following store depletion. To address this, we measured the ability of mCherry-tagged STIM1 variants containing CAD mutations to co-cluster with eGFP-Orai1 and activate Ca^2+ entry in response to TG (FIG. 7). STIM1-Orai1 colocalization was quantified as the fraction of total STIM1 and Orai1 fluorescence that was recruited to regions of high fluorescence covariance (FIG. 13), while Ca^2+ influx was measured with single cell Ca^2+ imaging. For each set of experiments we measured mCherry and GFP fluorescence to confirm that differences in the activity of the various STIM1 constructs were not due to differences in expression level (FIG. 14).

T2 sequence (Q96D31 whole entry): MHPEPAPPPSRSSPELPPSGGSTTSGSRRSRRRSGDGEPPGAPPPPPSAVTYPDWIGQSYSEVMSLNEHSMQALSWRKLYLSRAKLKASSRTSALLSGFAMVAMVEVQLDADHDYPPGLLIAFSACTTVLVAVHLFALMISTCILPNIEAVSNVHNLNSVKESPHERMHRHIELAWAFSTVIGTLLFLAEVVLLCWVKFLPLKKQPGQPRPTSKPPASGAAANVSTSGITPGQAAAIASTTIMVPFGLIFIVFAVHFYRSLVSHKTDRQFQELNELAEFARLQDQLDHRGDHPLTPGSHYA
T1 sequence (Q13586 342-448): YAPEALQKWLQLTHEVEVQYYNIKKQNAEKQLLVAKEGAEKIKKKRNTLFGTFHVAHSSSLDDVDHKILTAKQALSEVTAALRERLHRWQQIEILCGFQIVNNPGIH

B1: Orai11-70: Orai1 fragment aa 1-70 (protein)
chain: MHPEPAPPPSRSSPELPPSGGSTTSGSRRSRRRSGDGEPPGAPPPPPSAVTYPDWIGQSYSEVMSLNEHS
modifications: left off: small tags and cut ends
co-immunoprecipitation with CAD (CAD): not

B2: STIM1-DCAD: WT-STIM1 with the CAD deleted (protein)
chain: LSHSHSEKATGTSSGANSEESTAAEFCRIDKPLCHSEDEKLSFEAVRNIHKLMDDDANGDVDVEESDEFLREDLNYHDPTVKHSTFHGEDKLISVEDLWKAWKSSEVYNWTVDEVVQWLITYVELPQYEETFRKLQLSGHAMPRLAVTNTTMTGTVLKMTDRSHRQKLQLKALDTVLFGPPLLTRHNHLKDFMLVVSIVIGVGGCWFAYIQNRYSKEHMKKMMKDLEGLHRAEQSLHDLQERLHKAQEEHRTVEVEKVHLEKKLRDEINLAKQEAQRLKELREGTENERSRQKYAEEELEQVREALRKAEKELESHSSWSLVAALNIDPSWMGSTRPNPAHFIMTDDVDDMDEEIVSPLSMQSPSLQSSVRQRLTEPQHGLGSQRDLTHSDSESSLHMSDRQRVAPKPPQMSRAADEALNAMTSNGSHRLIEGVHPGSLVEKLPDSPALAKKALLALNHGLDKAHSLMELSPSAPPGGSPHLDSSRSHSPSSPDPDTPSPVGDSRALQASRNTRIPHLAGKKAVAEEDNGSIGEETDSSPGRKKFPLKIFKKPLKK
modifications: left off: large carriers
notes: WT-STIM1 with the CAD deleted
NFAT activation by endogenous channels (endogenous CRAC channels): inhibited NFAT activation | puncta formation with Orai1 after store depletion (Orai1 [1]): failed to form puncta | Ca2+ entry (SOCE) after store depletion (Orai1 [2]): failed to form puncta, cluster Orai1 or activate Ca^2+ entry
